Experiments:
α-synuclein (α-syn) [1] = target: α-synuclein (α-syn) (UniProt P37840); experiment: ThT fluorescence of agitation-induced self-aggregation; details: reference: α-syn not treated with PLK3; sites S129
α-synuclein (α-syn) [2] = target: α-synuclein (α-syn) (UniProt P37840); experiment: ThT fluorescence of ONE-induced self-aggregation; details: reference: α-syn not treated with PLK3; sites S129

Substance: α-synuclein (α-syn) (from UniProt P37840) PLK3-phosphorylated α-syn (p-α-syn)
- fold change (α-synuclein (α-syn) [1]): stronger; reference 1
- fold change (α-synuclein (α-syn) [2]): stronger; reference 1
